Test system: Escherichia coli TOP10
Assay: shrunken log2 fold change of peptide-encoding DNA abundance (4.5 h post-induction vs induction); higher = less antimicrobial activity (less host growth inhibition)
Settings: time post-induction: 4.5 h; library: site-saturation at positions 5, 18, 19, 20
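Also: peptides expressed intracellularly from a pBAD plasmid library in pooled LB shake-flask culture, induced with 0.3% L-arabinose, DNA abundance read by NGS, three biological replicates, DESeq2 with apeglm shrinkage.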

RRIRHRPPRLPRPRPRPRQMPRP
shrunken log2 fold change: -0.0208

RRIRHRPPRLPRPRPRPRQWPRP
shrunken log2 fold change: 0.408

RRIRHRPPRLPRPRPRPRTIPRP
shrunken log2 fold change: -0.344

RRIRHRPPRLPRPRPRPRTMPRP
shrunken log2 fold change: -0.0671

RRIRHRPPRLPRPRPRPRVSPRP
shrunken log2 fold change: 0.106

RRIRHRPPRLPRPRPRPRVVPRP
shrunken log2 fold change: 0.072

RRIRHRPPRLPRPRPRPRWDPRP
shrunken log2 fold change: 0.127

RRIRHRPPRLPRPRPRPRWPPRP
shrunken log2 fold change: 2.25

RRIRHRPPRLPRPRPRPRYFPRP
shrunken log2 fold change: -0.439

RRIRHRPPRLPRPRPRPRYIPRP
shrunken log2 fold change: -0.528

RRIRHRPPRLPRPRPRPRYQPRP
shrunken log2 fold change: -1.18

RRIRHRPPRLPRPRPRPSADPRP
shrunken log2 fold change: -0.428

RRIRHRPPRLPRPRPRPSCRPRP
shrunken log2 fold change: -0.105

RRIRHRPPRLPRPRPRPSDAPRP
shrunken log2 fold change: -0.293

RRIRHRPPRLPRPRPRPSDRPRP
shrunken log2 fold change: -0.125

RRIRHRPPRLPRPRPRPSHKPRP
shrunken log2 fold change: -0.718

RRIRHRPPRLPRPRPRPSHYPRP
shrunken log2 fold change: 0.288

RRIRHRPPRLPRPRPRPSIFPRP
shrunken log2 fold change: -0.704

RRIRHRPPRLPRPRPRPSKLPRP
shrunken log2 fold change: -0.448

RRIRHRPPRLPRPRPRPSKYPRP
shrunken log2 fold change: -0.776

RRIRHRPPRLPRPRPRPSLPPRP
shrunken log2 fold change: -0.328

RRIRHRPPRLPRPRPRPSNFPRP
shrunken log2 fold change: -0.108

RRIRHRPPRLPRPRPRPSNLPRP
shrunken log2 fold change: -0.289

RRIRHRPPRLPRPRPRPSNSPRP
shrunken log2 fold change: -0.798

RRIRHRPPRLPRPRPRPSPMPRP
shrunken log2 fold change: -0.418

RRIRHRPPRLPRPRPRPSPTPRP
shrunken log2 fold change: 0.0862

RRIRHRPPRLPRPRPRPSQPPRP
shrunken log2 fold change: -0.184

RRIRHRPPRLPRPRPRPSRYPRP
shrunken log2 fold change: -1

RRIRHRPPRLPRPRPRPSSFPRP
shrunken log2 fold change: 0.0395

RRIRHRPPRLPRPRPRPSTMPRP
shrunken log2 fold change: -0.493

RRIRHRPPRLPRPRPRPSWCPRP
shrunken log2 fold change: -0.453

RRIRHRPPRLPRPRPRPSYCPRP
shrunken log2 fold change: 0.00287

RRIRHRPPRLPRPRPRPSYEPRP
shrunken log2 fold change: -0.503

RRIRHRPPRLPRPRPRPSYSPRP
shrunken log2 fold change: -0.314

RRIRHRPPRLPRPRPRPSYTPRP
shrunken log2 fold change: -0.714

RRIRHRPPRLPRPRPRPTACPRP
shrunken log2 fold change: 0.074

RRIRHRPPRLPRPRPRPTDAPRP
shrunken log2 fold change: 0.0615

RRIRHRPPRLPRPRPRPTFGPRP
shrunken log2 fold change: 0.0378

RRIRHRPPRLPRPRPRPTFVPRP
shrunken log2 fold change: -0.152

RRIRHRPPRLPRPRPRPTGAPRP
shrunken log2 fold change: 0.0132

RRIRHRPPRLPRPRPRPTGIPRP
shrunken log2 fold change: -0.0208

RRIRHRPPRLPRPRPRPTILPRP
shrunken log2 fold change: -0.194

RRIRHRPPRLPRPRPRPTKAPRP
shrunken log2 fold change: -0.0108

RRIRHRPPRLPRPRPRPTKLPRP
shrunken log2 fold change: -0.255

RRIRHRPPRLPRPRPRPTMLPRP
shrunken log2 fold change: -0.468

RRIRHRPPRLPRPRPRPTNAPRP
shrunken log2 fold change: -0.463

RRIRHRPPRLPRPRPRPTNEPRP
shrunken log2 fold change: -0.512

RRIRHRPPRLPRPRPRPTNRPRP
shrunken log2 fold change: -0.162

RRIRHRPPRLPRPRPRPTNSPRP
shrunken log2 fold change: -0.258

RRIRHRPPRLPRPRPRPTQLPRP
shrunken log2 fold change: 0.278

RRIRHRPPRLPRPRPRPTRQPRP
shrunken log2 fold change: 0.254

RRIRHRPPRLPRPRPRPTSDPRP
shrunken log2 fold change: -0.302

RRIRHRPPRLPRPRPRPTSGPRP
shrunken log2 fold change: -0.0493

RRIRHRPPRLPRPRPRPTTMPRP
shrunken log2 fold change: -0.261

RRIRHRPPRLPRPRPRPTWCPRP
shrunken log2 fold change: 0.582

RRIRHRPPRLPRPRPRPTWRPRP
shrunken log2 fold change: 0.381

RRIRHRPPRLPRPRPRPVAEPRP
shrunken log2 fold change: 0.232

RRIRHRPPRLPRPRPRPVAFPRP
shrunken log2 fold change: -0.187

RRIRHRPPRLPRPRPRPVAWPRP
shrunken log2 fold change: 0.252

RRIRHRPPRLPRPRPRPVCAPRP
shrunken log2 fold change: 0.208

— the supplement of paper PMC9112550, “Optimization of the antimicrobial peptide Bac7 by deep mutational scanning” (BMC Biology, 2022)
